In patent US20150259721A1:

Target: Her2 (UniProt P04626)
Assay: cell-based or functional assay

Substance	EC50 nM, concentration of the drug to kill 50% of the tumor cells in vitro, HCC1954 cells [nM]	EC50 nM, concentration of the drug to kill 50% of the tumor cells in vitro, SKOV3 cells [nM]	EC50 nM, in vitro potency (cytotoxicity), SKBR3 cells [nM]	EC50 nM, in vitro potency (cytotoxicity), SKOV3 cells [nM]	EC50 nM, concentration of the drug to kill 50% of the tumor cells in vitro, PC3 cells [nM]
4D5-AzAb (HC274)-AF (antibody)	0.0212	0.187	0.0074	0.019	
4D5-AzAb (HC274: LC81)-AF (antibody)	0.0149	0.0523			
4D5-AzAb (HC359)-AF (antibody)	0.0241	0.16			1.33
4D5-AzAb (LC81)-AF (antibody)	0.0437	0.201			1.13
